Numbering of substitutions follows the chain as printed.
B1: EBOV-515 mAb, Alexa Fluor 647-labeled (antibody, V domains shown)
VH: QVQLQESGPGLVKPSQTLSLTCTVSGGSINSAGYYWTWIRQHPGKGLEWIGYIDYTGRTYYNPSLESRVIISIDTSKNHFSLRLTSVSAADTAVYYCARESSWVSELGRDNWGQGTLVTVSS
VL: EIVMTQSPATLPVSPGEGATLSCRASQSVFTNLAWYQQKPGQAPRLLIYDASTRATGIPARFSGSGSGTEFTLTISSLQSEDFAVYYCQQYNNWPRTYGQGTRVEVK
B2: EBOV-442 mAb (antibody, V domains shown)
VH: EVQLVESGGGLVKPGGSLRLSCTGSGGTGFTFKYAGMSWVRQAPGKGPEWIGRIKSRIDGGTTDYAAPVKDRFIVSRDDSRNTLYLQMNSLKTEDTAVYYCATGSGKGPSASFGESYYYYDFINVWGKGTTVTVSS
VL: ESVLTQSPGTLSLSPGERATLSCRASQSISRKYLAWYQQKPGQAPRLLIYGSSSRATGIPDRFSGSGSGTDFTLTISRLEPEDFAVYYCHQYESSPWTFGQGTKVEIK
notes: IgG1; source: ExpiCHO, transiently transfected, purified (HiTrap MabSelect Sure)
B3: BDBV-289 mAb (antibody, V domains shown)
VH: QVQLVQSGAEVKKPGSSVKVSCKASGATFGSDTVTWVRQAPGQGLEWMGGIIPFFGEANYAQRFQGRVTITADKSTNTAYMELSSLRSEDTAVYFCARQINEMATFGEIHYYTYMDVWGQGTLVTVSS
VL: GSELTQDPAVSVALGQTVRITCQGDSLRNYYASWYQQKPRQAPVLVFYGKNNRPSGIPDRFSGSSSGNTASLTISGAQAEDEADYYCNSRDSSSNHLVFGGGTKLTVL
notes: source: HEK-293F, transiently transfected, purified (mAb Select, SEC)
B4: BDBV-43 mAb (antibody, V domains shown)
VH: QVQLVQSGAEVKKPGSSVKVSCRASGDSFSRKYGISWVRQAPGQGFEWMGTIMPIVGLTTSAQKFQGRVTITADKSTSTAHMELNSLTSEDTAIYYCARDEIIGARPHWFDSWGQGTLVTVSS
VL: EIVMTQSPAIMSVSPGKRATLSCRASQSVSSNLAWYQRKPGQAPRLLIYGSSTRATGIPARFSGSGSGTEFTLTISSLQSEDFAVYYCLQYYNWPRTFGQGTKVEIK
notes: as for B3
B5: EBOV-293 mAb (antibody, V domains shown)
VH: QVQLVQSGAEVKKPGSSVKVSCKASGGTFIDYTYNWVRQAPGQGLVWMGRVVPGLGLSSYAQQFEDRVTITAAKSTSTVYMELRGLTSEDTAMYYCARDTASFGWLPFAFWGQGTLVTVSS
VL: QTVMTQSPGTLSLSPGERATLSCGVSQSISSTYFAWYQQKVGQAPRLLIYGASNRASGIPDRFSGSASGTDFTLTISRVEPEDFAVYYCQQYGSSPTFGQGTRLEIK
B6: EBOV-548 mAb (antibody, V domains shown)
VH: QVQVEESGGGVVQPGGSLRLSCAASGFMFSNYGMHWVRQAPGKGLEWMAFIRYDDSKKFYADSVKGRFTISRDNSKNTLYLQMNSLRAEDTALYYCAKELLQVYTSAWGEGHSYYYALDVWGLGTAVTVSS
VL: DIQMTQSPSSVSASVGDRVTITCRASQDISNWLAWYQQKPGKAPELLIYTASILQSGVSSRFSGSGSGTDFTLTISSLQPEDSATYYCQQGKSFPYTFGQGTKLEIK
B7: EBOV-296 mAb (antibody, V domains shown)
VH: QVQLVESGPGLVKPSQTLSLICTVSGGSISSGDFYWSWIRQPPGKGLEWIGFFYYSGITYYNPSLKSRVSISRDTSTNQFSLKLRSVTAADTAVYYCARVRGGRITLGQGDMYYYSGMDVWGQGTLVTVSS
VL: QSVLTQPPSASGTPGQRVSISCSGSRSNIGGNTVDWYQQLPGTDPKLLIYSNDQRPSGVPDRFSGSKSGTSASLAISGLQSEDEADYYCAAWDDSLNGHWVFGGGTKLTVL
B8: EBOV-437 mAb (antibody, V domains shown)
VH: QVQLVQSGAEVKKPGSSVKVSCKASGGTFSRDIFSWVRQAPGQGLEWMGGIIPIFGTANYAQKFQGRVTITADKSTSTVFMELSGLRSEDTAVYFCARGPPLRGERSWFGESEKYDYFYMDVWGKGTTVTVSS
VL: QIVLTQSPGTLSLSPGERATLSCRASQSVSNSYLAWYQQKPGQAPRLLIYGASSRATGIPDRFSGSGSGTDFTLSISRLEPEDFAVYYCQQYGTSPCTFGQGTKLEIK
notes: as for B2
B9: BDBV-329 mAb (antibody, V domains shown)
VH: QVQLVQSGAEVKKPGSSVKVSCKASGGTFDTYAISWVRQAPGQGLEWMGGIIPVLGIVDYAQKFQGRVTITAAKFTNIAYMELSSLRSEDAAVYYCARGLRSLSPRGQEGPTPAPGWRRAQYHYYYMDVWGTGTLVTVSS
VL: B8 VL with Q1E, L4M, N31S, S32N, T70P, S75T, T94S, C97G, Q101G, L105V
notes: as for B2
B10: EBOV-237 mAb (antibody, V domains shown)
VH: QVQLQESGPGLVKPSGTLSLTCAVSGGSISNGIWWSWVRQPPGKGLEWIGEIYHSGSTNYSPSLKSRVTISLDKSKNQFSLKLNSVTAADTAVYYCARAPSQFDFSDWLVPQGAMFRGHYIDYWGQGTLVTVSS
VL: not shown
notes: as for B2

What follows are binders tested against Cleaved EBOV GP (GPCL) displayed on Jurkat cells (Zaire ebolavirus, Makona (A0A0E3TM45), UniProt A0A0E3TM45, strain) (assay: flow cytometry on cells). Settings: one partner purified.

Q: Does B1 bind?
A: binds

Q: Does B2 bind?
A: binds

What follows are binders tested against T1, EBOV sGP (Mayinga) (Zaire ebolavirus (strain Mayinga-76) …, UniProt P60170) (assay: ELISA). Settings: both partners purified.
T1 construct: source: HEK-293F, transiently transfected, purified (Strep-Tactin, SEC S200 increase)

Q: Does B3 bind?
A: binds

Q: Does B4 bind?
A: binds

Q: Does B5 bind?
A: binds

Q: Does B6 bind?
A: binds

Q: Does B7 bind?
A: binds

Q: Does B8 bind?
A: binds

Q: Does B9 bind?
A: binds

Q: Does B10 bind?
A: binds

Q: Does B2 bind?
A: binds

Source: publication doi:10.1101/2020.10.14.340026 (bioRxiv, 2020)
